Biological target: the molecule itself
Experiment: crystal structure

B1: Phd (prevents host death) antitoxin of bacteriophage P1 (natural protein, UniProt Q06253 1-73, looked up)
chain: MQSINFRTARGNLSEVMNNVEAGEEVEITRRGREPAVIASKATFEAYKKAALDAEFASLFDTLDSTNKELVNR
modifications: selenomethionine (expressed in MJ9 minimal medium supplemented with selenomethionine)
**Q.** Does B1 bind?
**A.** Result: binds
